Assay results as given in paper doi:10.1101/431288 (bioRxiv, 2018).

Molecular target: the molecule itself
Experiment: cryo-EM structure

B1: human butyrylcholinesterase (HuBChE), native glycosylated enzyme purified from plasma (enzyme, UniProt P06276 29-602, looked up)
chain: EDDIIIATKNGKVRGMNLTVFGGTVTAFLGIPYAQPPLGRLRFKKPQSLTKWSDIWNATKYANSCCQNIDQSFPGFHGSEMWNPNTDLSEDCLYLNVWIPAPKPKNATVLIWIYGGGFQTGTSSLHVYDGKFLARVERVIVVSMNYRVGALGFLALPGNPEAPGNMGLFDQQLALQWVQKNIAAFGGNPKSVTLFGESAGAASVSLHLLSPGSHSLFTRAILQSGSFNAPWAVTSLYEARNRTLNLAKLTGCSRENETEIIKCLRNKDPQEILLNEAFVVPYGTPLSVNFGPTVDGDFLTDMPDILLELGQFKKTQILVGVNKDEGTAFLVYGAPGFSKDNNSIITRKEFQEGLKIFFPGVSEFGKESILFHYTDWVDDQRPENYREALGDVVGDYNFICPALEFTKKFSEWGNNAFFYYFEHRSSKLPWPEWMGVMHGYEIEFVFGLPLERRDNYTKAEEILSRSIVKRWANFAKYGNPNETQNNSTSWPVFKSTEQKYLTLNTESTRIMTKLRAQQCRFWTSFFPKVLEMTGNIDEAEWEWKAGFHRWNNYMMDWKNQFNDYTSKKESCVGL
notes: also called native BChE tetramer
stoichiometry N: 4
